# In US20200164032A1 (WASHINGTON UNIVERSITY, published 2020):
# B1: R17 chemokine decoy receptor of Rodent herpesvirus Peru (RHVP), wild type, C-terminal 8-His fusion (receptor)
# chain: GPVGEPVASEINEASKVSSRLLTQDILFRKDRQATISLPIKLPVEDIITQTCDKITYGPLKFLDLLEKETAVLPLSTDITCPACLGRAVLVGKWECPAHVAVNESDLTVFGPNKEEHVPQFVTVQQPSDGKMQRLFFAKFLGTEESLAVLRVPGPDGHLCIQEALIHFKELSGAGVCSLWKANDSREEGLEMKQVDCLETTVLENQTCIATTLSKKIYHRLYCGERLMTGGQVSTRVLLTALGFYKRQPYTFHRVPKGMVYVHLIDSGSEDYMEYSECEEVTPGRYEDKQISYTFYTDLFQTADGEPVLASVWGTSGLKDSAYESCAFVIPTKGRRKLVPRRIMSKCYPFRLTYHPSTMTVRLDVRVEKHHGATDQGFVFLKMESGTYSEGREYYLDRVLWGEDSSTNNVLQ
# notes: not shown: C-terminal 8-His tag
# Legend:
# [1] = molecular target: CCL3 (species not given); test: SPR, R17 variant on CM5 chip; column KDeq (nM); ka, kd, KD printed n/a
# human CCL2 = molecular target: T1, human CCL2 (human, UniProt P13500 24-99); test: SPR, R17 on CM5 chip
# T1 construct: also called hCCL2
# T1 sequence (P13500 24-99 limits assumed): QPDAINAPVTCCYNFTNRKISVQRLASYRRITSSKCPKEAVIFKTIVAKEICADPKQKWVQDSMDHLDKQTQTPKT
# murine CXCL12 = molecular target: T2, murine CXCL12 (mouse, UniProt P40224 22-89); test: SPR, R17 on CM5 chip
# T2 construct: also called mCXCL12
# T2 sequence (P40224 22-89 limits assumed): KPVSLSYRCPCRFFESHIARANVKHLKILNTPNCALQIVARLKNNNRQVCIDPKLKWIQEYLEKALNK
# murine CXCL1 = molecular target: T3, murine CXCL1 (mouse, UniProt P12850 25-96); test: SPR, R17 on CM5 chip
# T3 construct: also called mCXCL1
# T3 sequence: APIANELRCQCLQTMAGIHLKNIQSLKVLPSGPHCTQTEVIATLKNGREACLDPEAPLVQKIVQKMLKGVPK
# murine CXCL2 = molecular target: T4, murine CXCL2 (mouse, UniProt P10889 28-100); test: SPR, R17 on CM5 chip
# T4 construct: also called mCXCL2
# T4 sequence: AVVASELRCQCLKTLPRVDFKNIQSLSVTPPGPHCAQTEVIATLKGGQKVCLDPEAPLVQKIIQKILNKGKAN
# murine CCL24 = molecular target: T5, murine CCL24 (mouse, UniProt Q9JKC0 27-119); test: SPR, R17 on CM5 chip
# T5 construct: also called mCCL24
# T5 sequence: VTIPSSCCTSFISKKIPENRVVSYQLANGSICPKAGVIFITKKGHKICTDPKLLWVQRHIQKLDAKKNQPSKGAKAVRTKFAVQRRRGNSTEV
# murine CXCL9 = molecular target: T6, murine CXCL9 (mouse, UniProt P18340 22-126); test: SPR, R17 on CM5 chip
# T6 construct: also called mCXCL9
# T6 sequence: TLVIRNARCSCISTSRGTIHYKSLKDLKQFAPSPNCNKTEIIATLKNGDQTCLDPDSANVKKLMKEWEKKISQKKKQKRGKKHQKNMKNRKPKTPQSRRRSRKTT
# murine IL-12 = molecular target: T7, murine IL-12 (mouse, UniProt P43431 23-215; P43432 23-335); test: SPR, R17 on CM5 chip
# T7 construct: also called mIL-12
# T7 sequence 1: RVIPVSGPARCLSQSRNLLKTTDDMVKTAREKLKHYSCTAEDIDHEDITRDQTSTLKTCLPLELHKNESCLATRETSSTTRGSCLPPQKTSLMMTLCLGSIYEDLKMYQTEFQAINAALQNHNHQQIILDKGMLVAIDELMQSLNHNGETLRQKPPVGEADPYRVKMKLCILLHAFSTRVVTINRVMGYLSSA
# T7 sequence 2: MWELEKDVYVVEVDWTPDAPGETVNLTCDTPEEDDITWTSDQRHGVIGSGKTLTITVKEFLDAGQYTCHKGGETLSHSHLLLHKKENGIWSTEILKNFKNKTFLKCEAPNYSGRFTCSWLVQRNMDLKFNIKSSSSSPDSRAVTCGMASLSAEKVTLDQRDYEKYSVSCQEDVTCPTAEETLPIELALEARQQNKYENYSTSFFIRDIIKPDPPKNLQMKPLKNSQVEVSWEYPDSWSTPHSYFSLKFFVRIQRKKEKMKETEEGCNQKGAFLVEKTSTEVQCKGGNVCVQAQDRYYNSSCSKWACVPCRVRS
# human CCL3 = molecular target: T8, human CCL3 (human, UniProt P10147 23-92); test: SPR, R17 on CM5 chip
# T8 construct: also called hCCL3
# T8 sequence: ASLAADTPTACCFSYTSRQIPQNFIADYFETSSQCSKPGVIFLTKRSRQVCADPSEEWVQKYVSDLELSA
# murine IL-6 = molecular target: T9, murine IL-6 (mouse, UniProt P08505 25-211); test: SPR, R17 on CM5 chip
# T9 construct: also called mIL-6
# T9 sequence: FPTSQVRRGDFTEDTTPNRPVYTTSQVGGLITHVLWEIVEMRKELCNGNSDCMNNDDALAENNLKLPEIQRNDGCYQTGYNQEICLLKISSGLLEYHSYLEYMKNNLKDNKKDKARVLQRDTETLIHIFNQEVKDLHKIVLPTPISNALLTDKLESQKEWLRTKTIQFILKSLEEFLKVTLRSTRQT
# murine CXCL10 = molecular target: T10, murine CXCL10 (mouse, UniProt P17515 22-98); test: SPR, R17 on CM5 chip
# T10 construct: also called mCXCL10
# T10 sequence: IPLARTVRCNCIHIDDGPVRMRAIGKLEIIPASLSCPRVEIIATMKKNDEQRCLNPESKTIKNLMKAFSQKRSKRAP
# murine IL-13 = molecular target: T11, murine IL-13 (mouse, UniProt P20109 21-131); test: SPR, R17 on CM5 chip
# T11 construct: also called mIL-13
# T11 sequence: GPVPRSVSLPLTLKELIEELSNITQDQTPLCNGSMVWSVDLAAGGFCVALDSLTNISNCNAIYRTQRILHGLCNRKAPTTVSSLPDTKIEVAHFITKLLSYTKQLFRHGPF
# murine IL-17 = molecular target: T12, murine IL-17 (mouse, UniProt Q62386 26-158); test: SPR, R17 on CM5 chip
# T12 construct: also called mIL-17
# T12 sequence: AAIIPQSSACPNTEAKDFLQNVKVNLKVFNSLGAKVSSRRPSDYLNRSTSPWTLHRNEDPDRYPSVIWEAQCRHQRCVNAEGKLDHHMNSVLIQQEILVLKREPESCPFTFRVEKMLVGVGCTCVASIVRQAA
# [2] = molecular target: CCL2 (species not given); test: SPR, R17 variant on CM5 chip; column KD (nM), kinetic
# murine CCL12 = molecular target: T13, murine CCL12 (mouse, UniProt Q62401 23-104); test: SPR, R17 on CM5 chip; KD,kin = kd/ka from the global fit
# T13 construct: also called mCCL12
# T13 sequence: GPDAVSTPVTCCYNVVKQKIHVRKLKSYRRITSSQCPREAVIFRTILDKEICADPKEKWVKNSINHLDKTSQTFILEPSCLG
# murine CCL8 = molecular target: T14, murine CCL8 (mouse, UniProt Q9Z121 24-97); test: as above
# T14 construct: also called mCCL8
# T14 sequence: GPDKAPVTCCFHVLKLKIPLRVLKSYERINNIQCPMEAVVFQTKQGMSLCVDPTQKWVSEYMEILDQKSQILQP
# murine CCL2 = molecular target: T15, murine CCL2 (mouse, UniProt P10148 24-148); test: as above
# T15 construct: also called mCCL2
# T15 sequence (P10148 24-148 limits assumed): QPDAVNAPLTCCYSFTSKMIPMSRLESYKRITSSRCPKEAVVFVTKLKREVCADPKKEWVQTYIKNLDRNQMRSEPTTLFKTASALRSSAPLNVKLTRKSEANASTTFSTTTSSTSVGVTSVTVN
# [3] = molecular target: CCL2 (species not given); test: SPR, R17 variant on CM5 chip; column KDeq (nM)
binder,measurement,setting,value
B1,Kd,[1],0.4 nM
same,complex half-life (t1/2),human CCL2,0.035 min
same,binding result,murine CXCL12,no binding
same,binding result,murine CXCL1,no binding
same,binding result,murine CXCL2,no binding
same,complex half-life,murine CCL24,> 10 min
same,binding result,murine CXCL9,no binding
same,binding result,murine IL-12,no binding
same,"apparent complex half-life (t1/2,app)",human CCL3,> 16.7 min
same,binding result,murine IL-6,no binding
same,binding result,murine CXCL10,no binding
same,binding result,murine IL-13,no binding
same,binding result,murine IL-17,no binding
same,Kd,[2],6.7 nM
same,Kd,murine CCL12,1.1 nM
same,Kd,murine CCL8,76 nM
same,Kd,murine CCL2,6.7 nM
same,Kd,[3],10 nM
